# PMC10869706, “Chp1 is a dedicated chaperone at the ribosome that safeguards eEF1A biogenesis” (Nature Communications, 2024)
# T1: V5-eEF1A F98C (yeast (S. cerevisiae), UniProt P02994 1-458, F98C)
# T1 construct: eEF1A (Tef2), yeast, with a change that represents a human EEF1A2 polymorphism; source: expressed in yeast cells, in lysate; not shown: V5, N-terminal, kept
# T1 sequence (looked up): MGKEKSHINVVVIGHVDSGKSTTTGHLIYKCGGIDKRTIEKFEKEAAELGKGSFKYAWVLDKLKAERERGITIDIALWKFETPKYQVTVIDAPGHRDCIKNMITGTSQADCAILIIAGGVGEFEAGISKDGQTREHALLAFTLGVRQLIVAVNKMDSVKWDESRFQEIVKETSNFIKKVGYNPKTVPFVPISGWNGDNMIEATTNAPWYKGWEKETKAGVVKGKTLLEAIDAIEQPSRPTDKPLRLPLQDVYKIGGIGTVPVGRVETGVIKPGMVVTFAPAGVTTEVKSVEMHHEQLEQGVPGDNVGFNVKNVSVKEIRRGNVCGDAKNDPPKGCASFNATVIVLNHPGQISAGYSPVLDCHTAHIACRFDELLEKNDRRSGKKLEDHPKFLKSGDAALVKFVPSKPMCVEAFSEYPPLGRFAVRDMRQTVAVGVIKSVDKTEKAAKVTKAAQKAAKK
# T2: V5-eEF1A M102V (yeast (S. cerevisiae), UniProt P02994 1-458, M102V)
# T2 construct: eEF1A (Tef2), yeast, with a change that represents a human EEF1A2 polymorphism; source: expressed in yeast cells, in lysate; not shown: V5, N-terminal, kept
# T2 sequence (looked up): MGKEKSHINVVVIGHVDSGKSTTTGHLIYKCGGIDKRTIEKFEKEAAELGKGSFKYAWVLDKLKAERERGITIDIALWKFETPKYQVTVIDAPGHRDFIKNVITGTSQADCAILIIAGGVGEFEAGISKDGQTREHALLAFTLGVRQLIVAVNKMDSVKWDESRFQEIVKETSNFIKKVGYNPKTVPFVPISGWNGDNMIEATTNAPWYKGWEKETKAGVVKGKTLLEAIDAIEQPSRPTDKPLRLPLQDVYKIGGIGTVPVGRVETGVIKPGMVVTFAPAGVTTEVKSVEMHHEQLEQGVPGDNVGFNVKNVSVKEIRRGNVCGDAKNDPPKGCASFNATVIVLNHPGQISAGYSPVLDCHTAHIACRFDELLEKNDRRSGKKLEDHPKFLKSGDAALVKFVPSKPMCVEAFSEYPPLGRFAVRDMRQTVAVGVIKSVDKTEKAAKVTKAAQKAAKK
# Experiments:
# V5-eEF1A F98C = target: T1, V5-eEF1A F98C; assay: co-IP; co-IP of V5-eEF1A variants with Chp1 from yeast lysate (GFP-Trap/V5-Trap; 20 mM Tris pH 7.4, 150 mM NaCl, 2 mM MgCl2, 2 mM EDTA, 5% glycerol, 0.25% NP-40), 2 h at 4 °C, immunoblot, quantified; settings: partners not purified
# V5-eEF1A M102V = target: T2, V5-eEF1A M102V; assay: as above; settings: partners not purified
binder,measurement,setting,value
"Chp1 (in yeast cells expressing V5-eEF1A) (natural protein, yeast (S. cerevisiae), UniProt Q08971 1-146, looked up, Chp1 (ORF YPL225w), yeast; source: yeast cells, in lysate) MSTFNAETADNLEDIEKQFAVVAVEQAETYWKLLTSVPGSKLRLTKFDDEIYENFMERFPEYKDVERVKKFTEEELKTKEAKERWRKFFTIFEKKIEDYNFGTLLRTDASAEYGQFTTCFVVRLQFYAFEIARNKHGLNDWIVGQK",fold increase in Chp1 binding (against WT eEF1A),V5-eEF1A F98C,3 fold
same,fold increase in Chp1 binding (against WT eEF1A),V5-eEF1A M102V,3 fold
